Among the data in publication PMC9800282 are Kd values, retold here.

The Kd is the equilibrium constant for the complex coming apart.

For the test, the target named is vitronectin (VTN) (UniProt P04004). Kind of test: SPR; Biacore T200; LNA043 (~3,000 RU), FN1 or VTN (~500 RU) amine-coupled to CM5; integrins as analytes 0.6–10 μM, single-cycle kinetics, 37 °C, 1× HBS-N, 0.005% Tween 20, 1 mM MgCl2, 1 mM CaCl2, 2 mM MnCl2; 1:1 binding fit. (SPR reads the build-up and loss of mass on a sensor chip optically.)
Sequence of vitronectin (VTN) (P04004 20-478): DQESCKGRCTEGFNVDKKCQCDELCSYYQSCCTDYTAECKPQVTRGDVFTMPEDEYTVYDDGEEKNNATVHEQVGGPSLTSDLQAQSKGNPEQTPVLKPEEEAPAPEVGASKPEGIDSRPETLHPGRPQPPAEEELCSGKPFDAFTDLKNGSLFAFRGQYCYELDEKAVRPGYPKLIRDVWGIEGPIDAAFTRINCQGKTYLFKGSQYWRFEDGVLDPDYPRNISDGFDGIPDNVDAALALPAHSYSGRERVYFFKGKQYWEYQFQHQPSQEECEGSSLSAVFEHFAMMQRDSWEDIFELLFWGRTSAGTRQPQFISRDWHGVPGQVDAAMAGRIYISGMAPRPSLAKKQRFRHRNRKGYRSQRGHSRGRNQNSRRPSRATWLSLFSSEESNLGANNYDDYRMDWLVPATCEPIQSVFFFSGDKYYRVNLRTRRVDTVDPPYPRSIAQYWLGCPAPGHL

On to “recombinant human αvβ3 integrin (from UniProt P06756 31-1048; P05106 27-718) (complex)”, for which the equilibrium dissociation constant (Kd) was 997 nM.
